B1: Fc602 (other)
chain: DKTHTCPPCPAPELLGGPSVFLFPPKPKDTLMISRTPEVTCVVVDVSHEDPEVKFNWYVDGVEVHNAKTKPREEQYDSTYRVVSVLTVLHQDWLDGKEYKCKVSNKALPAPIEKTISKANGQPREPQVYTLPPSRDELTKNQVSLTCLVKGFYPSDIAVEWVSNGQPENNYKTTPPVLDSDGSFFLYSKLTVDKSRWQQGNVFSCSVIHEALHNHYTQKSLSLSPGK
notes: Aglycosylated Fc fragment (E. coli, pPelBFLAG), assayed on spheroplasts; not shown: C-terminal FLAG tag from pPelBFLAG
B2: Fc608 (other)
chain: B1 chain with D77N, D95N, N120K, G121V, K172E
notes: as for B1
B3: Fc605 (other)
chain: B1 chain with D77N, D95N, N120Q, A158D
notes: as for B1
B4: Fc606 (other)
chain: B1 chain with D77N, D95N, N105S
notes: as for B1
B5: Fc603 (other)
chain: B1 chain with D77N, D95N
notes: as for B1
B6: Fc607 (other)
chain: B1 chain with H4Y, E49K, D77N, D95N, N105S, N120K, G121V
notes: as for B1
B7: Fc604 (other)
chain: B1 chain with D77N, D95N, K118I
notes: as for B1

We go through 7 molecules from patent publication US20100330076A1 (RESEARCH DEVELOPMENT FOUNDATION, published 2010).

Residue numbers refer to the chain shown, from its start.

T1 sequence (P12314 16-292): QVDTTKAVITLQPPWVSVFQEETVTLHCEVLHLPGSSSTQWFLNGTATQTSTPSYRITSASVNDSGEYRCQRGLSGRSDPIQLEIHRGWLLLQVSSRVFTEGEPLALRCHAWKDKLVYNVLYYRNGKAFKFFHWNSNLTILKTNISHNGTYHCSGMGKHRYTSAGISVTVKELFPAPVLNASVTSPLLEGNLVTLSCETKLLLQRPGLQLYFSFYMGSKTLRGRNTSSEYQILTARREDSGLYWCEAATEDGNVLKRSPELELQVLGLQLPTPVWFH

This assay has as its target T1, extracellular domain of recombinant glycosylated FcγRIa/CD64 (R&D Systems) labeled with FITC (human, UniProt P12314 16-292, FITC-labeled; glycosylated).
T1 construct: extracellular domain; it is not restated for the bought reagent; also called FcγRIa-FITC; FcγRI-FITC
As to the kind of experiment: flow cytometry of E. coli spheroplasts labeled with FcγRIa-FITC (summary in Example 3). For orientation: Flow cytometry measures light scatter and fluorescence of single cells or particles in a stream.
Take B1: the binding result is on record as “binds”.
In the case of B2, the binding result was “binds”.
With B3, the binding result is “binds”.
For B4 the value was “binds”.
In the case of B5 it was “binds”; in that of B6, “binds”; in that of B7, “binds”.
